According to patent US20200179236A1, “METHOD AND PRODUCT FOR CARIES TREATMENT” (Credentis AG, priority 2016, published 2020):
Where no end group is shown, it is not given here.

How the values were obtained:
[1] = pH at which the peptide starts to undergo self-assembly; type: physicochemical
Description: Particular self-assembling peptides for use according to the invention are selected such that they are in self-assembled form when the pH of their environment is below a certain pH, e.g. below pH 7.5, e.g., at physiological ionic strength. The pH at which preferred self-assembling peptides of the invention undergo self-assembly is below 7.5, preferably below 7.2, more preferably below 7.0. For example, the pH at which the self-assembling peptide P11-4 (SEQ ID NO:1) and terminally modified P11-4 (SEQ ID NO:2) start to undergo self-assembly is about 7.5. This means that the self-assembling peptides start to self-assemble to a significant extent when the pH drops below 7.5.
As used herein, the pH at which the self-assembling peptide starts to undergo self-assembly refers to the pH below which a significant extent of self-assembly of the peptides in solution is observed, which means that at least about 25%, about 30%, about 35%, about 40%, about 45%, about 50%, about 55%, about 60%, about 65%, about 70%, about 75%, about 80%, about 85%, about 90%, about 95%, about 99% or even about 100% of the peptides found in the dental care product are assembled. In a preferred embodiment, at least about 25% of the peptides found in the dental care product are assembled below the pH at which the peptide starts to undergo self-assembly. […]

[2] = Self-assembling kinetic of P11-4 by measurements of elastic modulus G′; type: physicochemical; details: 15 mg/ml, neutral pH, 37° C., 0.1% strain, 1 rad/second; independent of ionic strength
Experimental: P11-4 was prepared at 15 mg/ml with different buffer compositions (see below) measured at 0.1% strain, 37° C. and a frequency of 1 rad/second. Self-assembly of peptide monomers to polymers takes more than 5 min independent of the used ionic strength at neutral pH.
Squares (top line of symbols) —NaCl: Tris (0.055 M)+NaCl, final ionic strength 142 mM;
Artifical saliva (second line of symbols from top): Tris, Ca(NO3)2, KH2PO4 (ratio 0.77:0.14: 0.08), ionic strength 142 mM;
Dulbecco's Modified Eagle Medium (DMEM): NaCl, NaHCO3,KCl,CaCl2, MgSO4 (ratio 0.66:0.4:0.05: 0.02:0.007), ionic strength 165 mM; MgSO4: 0.055 M Tris+0.192 M MgSO4 0.14 M Ionic strength

Row | Substance | pH at which the peptide starts to undergo self-assembly [1] | time of self-assembly of peptide monomers to polymers [2]
1 | CH3CO-QQRFEWEFEQQ-NH2 (Ac-QQRFEWEFEQQ-NH2) [terminally modified P11-4] | about 7.5 | 
2 | QQRFEWEFEQQ | about 7.5 | more than 5 min
